The chains are these.
B1: HDV Ribozyme (parent)
chain: GGCCGGCAUGGUCCCAGCCUCCUCGCUGGCGCCGGCUGGGCAACAUUCCGAGGGGACCGUCCCCUCGGUAAUGGCGAAUGGGACCCA

The variants in the data set derive from B1. The data set can be described thus: self-cleavage, relative activity (ratio to wild type); higher = more cleavage; co-transcriptional.
U60G C86A: the self-cleavage turned out to be 1.01.

Turning to U60G C86U, the self-cleavage is 0.959.

Consider C61U G81C, for which the self-cleavage is 0.29.

On to C61U G81U, for which the self-cleavage was determined as 0.273.

C61G A70G: the self-cleavage was 0.844.

For the variant U60C U69G, the self-cleavage worked out at 0.95.

Turning to C61G U79A, the self-cleavage is 0.739.

C61G U79C: the self-cleavage stood at 0.499.

For C61U C63G, the self-cleavage was determined as 0.243.

For C61U C63A, the self-cleavage amounted to 0.758.

As to C61U U72C, the self-cleavage amounted to 0.356.

Regarding C61U U72A, the self-cleavage worked out at 0.703.

Consider C61A C64G, for which the self-cleavage was found to be 0.791.

As for C61A C64A, the self-cleavage came to 0.96.

As for U60G G76A, the self-cleavage was 1.08.

As to C61A G80U, the self-cleavage was found to be 0.203.

As for C61A G80C, the self-cleavage came to 0.201.

Consider C61A G80A, for which the self-cleavage is 0.41.

Regarding U60G U69A, the self-cleavage amounted to 0.965.

For the variant C62U A87U, the self-cleavage stood at 1.08.

Consider C61G A78U, for which the self-cleavage was found to be 0.219.

In the case of C61G A78C, the self-cleavage came to 0.177.

For C61A C75U, the self-cleavage came out at 0.178.

C61A C75G: the self-cleavage amounted to 0.177.

Regarding C61U G76A, the self-cleavage was found to be 1.19.

For the variant C61U G76U, the self-cleavage came to 1.06.

With C61U G76C, the self-cleavage came out at 1.05.

For C62A G81A, the self-cleavage was found to be 0.332.

Regarding U60C G82C, the self-cleavage is 0.269.

As for U60C G82A, the self-cleavage was found to be 0.427.

For U60G A71U, the self-cleavage came to 0.918.

As to U60G A71C, the self-cleavage was determined as 1.21.

As for C61A C84U, the self-cleavage is 0.831.

As to C61A C84A, the self-cleavage was 0.831.

Take C62G G81U: the self-cleavage was found to be 0.133.

For U60G G80C, the self-cleavage turned out to be 0.141.

For the variant U60G G80A, the self-cleavage turned out to be 0.286.

For C62G A78G, the self-cleavage is 0.745.

On to C62G A78U, for which the self-cleavage is 0.297.

Regarding U60A G68A, the self-cleavage was determined as 0.917.

Take U60A G68U: the self-cleavage was 1.11.

C61G A77C: the self-cleavage was determined as 0.203.

Turning to C61G A77G, the self-cleavage was 0.831.

As for C62G A71C, the self-cleavage was determined as 0.443.

Take C62G A71U: the self-cleavage came out at 0.489.

For C62G C85G, the self-cleavage amounted to 0.911.

As to C62G C84G, the self-cleavage was 0.482.

C62A G74C: the self-cleavage is 0.113.

Consider U60G C66U, for which the self-cleavage came to 1.08.

As to U60G C62G, the self-cleavage is 0.703.

Take U60G C62A: the self-cleavage came to 0.886.

Regarding U60A A87G, the self-cleavage amounted to 0.823.

With U60G A87C, the self-cleavage stood at 0.831.

With U60G A87G, the self-cleavage was determined as 0.921.

Take C61U G68U: the self-cleavage is 0.95.

C61U G68C: the self-cleavage stood at 0.581.

For C62A A83U, the self-cleavage came to 0.494.

For C62A A83G, the self-cleavage turned out to be 0.683.

For the variant U60C C63U, the self-cleavage came out at 0.98.

Consider U60A G73A, for which the self-cleavage is 0.751.

With U60A G73C, the self-cleavage was 0.532.

Turning to C62G G67C, the self-cleavage came to 0.147.

In the case of U60A U69G, the self-cleavage came to 1.01.

Take U60A U69A: the self-cleavage stood at 0.793.

For the variant U60C A77U, the self-cleavage came to 0.831.

For the variant C62A A87U, the self-cleavage turned out to be 0.984.

Turning to C61U C75G, the self-cleavage was 0.151.

As to C61U C75A, the self-cleavage came out at 0.201.

C61U C75U: the self-cleavage was determined as 0.254.

For the variant C62G U72C, the self-cleavage came out at 0.525.

Consider C62G U72G, for which the self-cleavage was found to be 0.277.

C62G U72A: the self-cleavage is 0.467.

Consider C62G G80A, for which the self-cleavage came out at 0.185.

As to C62G G80U, the self-cleavage stood at 0.185.

In the case of U60G G82U, the self-cleavage came out at 0.309.

In the case of U60G G82C, the self-cleavage is 0.133.

In the case of U60A A71C, the self-cleavage is 0.73.

Take C62U C75A: the self-cleavage amounted to 0.166.

C62U C75G: the self-cleavage amounted to 0.406.

Turning to C62U C66A, the self-cleavage was 0.815.

As for C62U C66G, the self-cleavage was determined as 0.746.

As for C61U C85G, the self-cleavage is 0.981.

In the case of C61U C85A, the self-cleavage was found to be 1.07.

U60G C85A: the self-cleavage was 0.767.

On to U60G C85G, for which the self-cleavage worked out at 1.09.

As to U60G C85U, the self-cleavage was found to be 1.15.

For U60G C63G, the self-cleavage was 0.293.

Consider U60G C63U, for which the self-cleavage was 0.982.

On to C61U A71G, for which the self-cleavage is 0.997.

Take C61U A71U: the self-cleavage worked out at 1.02.

Consider U60A C61A, for which the self-cleavage stood at 0.742.

As to U60A C61U, the self-cleavage was 1.15.

Regarding C61G C75U, the self-cleavage was determined as 0.101.

U60G C64A: the self-cleavage turned out to be 1.07.

Take C62A C63U: the self-cleavage stood at 0.831.

On to C62A C85A, for which the self-cleavage came to 0.767.

Consider C61U C62G, for which the self-cleavage is 0.694.

Take C61U C62A: the self-cleavage worked out at 0.978.

For C61U C62U, the self-cleavage amounted to 0.644.

Turning to U60G A77U, the self-cleavage is 0.237.

For U60G A77C, the self-cleavage turned out to be 0.227.

Turning to C62A G67U, the self-cleavage came to 0.464.

With C62A G67A, the self-cleavage was determined as 0.578.

Regarding C62A G67C, the self-cleavage was found to be 0.78.

For the variant C62A C86A, the self-cleavage amounted to 1.01.

With C61A U72A, the self-cleavage was 0.745.

On to U60C C86U, for which the self-cleavage was found to be 0.88.

On to U60C C86A, for which the self-cleavage worked out at 0.831.

For U60C C85G, the self-cleavage worked out at 0.965.

C62G G82A: the self-cleavage came to 0.267.

Regarding C61A G76A, the self-cleavage was 1.02.

On to C61A G76C, for which the self-cleavage turned out to be 1.08.

Take U60C G80A: the self-cleavage worked out at 0.386.

For C61G U72A, the self-cleavage worked out at 0.457.

C61G U72C: the self-cleavage is 0.401.

For the variant C61G U72G, the self-cleavage worked out at 0.332.

On to C61G C85A, for which the self-cleavage came to 0.935.

Consider C61G C85G, for which the self-cleavage came to 0.906.

Take C61G C85U: the self-cleavage was 1.04.

In the case of U60G G68A, the self-cleavage is 1.02.

Turning to U60G G68C, the self-cleavage came out at 0.965.

As for U60C U65G, the self-cleavage worked out at 0.944.

On to U60C U65C, for which the self-cleavage amounted to 1.01.

Turning to U60G U79G, the self-cleavage was found to be 0.831.

In the case of U60C C62G, the self-cleavage came out at 1.07.

Regarding U60C C62U, the self-cleavage amounted to 0.997.

With U60C A70C, the self-cleavage was determined as 1.04.

Turning to U60C U79C, the self-cleavage was determined as 0.326.

Consider U60G G74U, for which the self-cleavage turned out to be 0.665.

For the variant C61A U65G, the self-cleavage was determined as 0.92.

Regarding C61A U65A, the self-cleavage turned out to be 0.774.

With U60A U72G, the self-cleavage was found to be 0.467.

Turning to U60A U72C, the self-cleavage came out at 0.415.

In the case of U60A U65C, the self-cleavage came to 1.08.

Turning to U60A U65G, the self-cleavage is 1.09.

Regarding U60A A78C, the self-cleavage is 0.

Consider U60A A78G, for which the self-cleavage worked out at 0.808.

Turning to U60A A78U, the self-cleavage was 0.249.

Take C61U U65A: the self-cleavage worked out at 0.616.

Consider C61U U65G, for which the self-cleavage worked out at 0.864.

C61U G80C: the self-cleavage turned out to be 0.115.

On to C61G C66A, for which the self-cleavage amounted to 0.674.

With C61G C66G, the self-cleavage worked out at 0.745.

With C62G C66G, the self-cleavage was found to be 0.249.

For C61G G68A, the self-cleavage is 1.02.

For the variant C61G G76C, the self-cleavage was 0.967.

As for C61A G74A, the self-cleavage is 0.561.

Consider C61A G74U, for which the self-cleavage came out at 0.63.

With U60C C61A, the self-cleavage turned out to be 0.831.

For the variant U60C C61G, the self-cleavage was 0.751.

Consider C61G U65G, for which the self-cleavage is 0.72.

On to C62U C63U, for which the self-cleavage is 1.11.

For the variant C62U C63G, the self-cleavage came out at 0.654.

On to C62U C63A, for which the self-cleavage worked out at 0.927.

Turning to U60C C64G, the self-cleavage came out at 0.776.

As for C62A U79C, the self-cleavage came to 0.339.

Take C62A U79A: the self-cleavage is 0.636.

For C61A, the self-cleavage worked out at 1.02.

As to C61U, the self-cleavage amounted to 1.01.

In the case of C61G, the self-cleavage worked out at 0.986.

For C62G U79G, the self-cleavage stood at 1.03.

With C62G U79A, the self-cleavage was 0.489.

As to C61A A78C, the self-cleavage is 0.145.

As to C61A G68A, the self-cleavage came to 1.08.

Consider C62A A77U, for which the self-cleavage stood at 0.45.

With C62A A77G, the self-cleavage was 1.17.

U60C A71U: the self-cleavage was 0.665.

These data come from the RNAGym collection of RNA variant scans (doi:10.7554/elife.80360).
